Measurements as given in patent publication US20200206312A1.
Values joined by “and” are separate entries in the source; they are usually repeats but may differ in a detail not shown here. Equal values may be shown once. Read-outs that look alike come from different tables or passages of the source. Bridge positions count the residues as written; N and C are the ends. Ends that are not written are not given here. * marks the point of attachment. Biotin = O=C1N[C@H]2[C@H](CS[C@H]2CCCCC(=O)*)N1; Capped = not defined here

B1: NH2(Biotin)-Y-G-P-Q-C(Capped)-L-C(Capped)-R-COOH (peptide)
peptide: Biotin-YGPQC(Capped)LC(Capped)R-OH
modifications: reading uncertain; also: printed as NH2(Biotin)-Y-G-P-Q-C(Capped)-L-C(Capped)-R-COOH
B2: tri-peptide 1/2/3 from trypsin digestion of N-terminal biotinylated TM601 (UM-1438-127-1) (peptide)
chain 1: MCMPCFTTDHQMAR
chain 2: CYGPQCLCR
chain 3: KCDDCCGGK
modifications: not fully specified (N-terminus); cysteine pairing not given here
B3: NH2(Biotin)-C(Capped)-Y-G-P-Q-C(Capped)-L-C(Capped)-R-COOH (peptide)
peptide: Biotin-C(Capped)YGPQC(Capped)LC(Capped)R-OH
modifications: reading uncertain; also: printed as NH2(Biotin)-C(Capped)-Y-G-P-Q-C(Capped)-L-C(Capped)-R-COOH
B4: tri-peptide 1/2/3 from trypsin digestion of Lys-27 biotinylated TM601 (UM-1438-118) (peptide)
chain 1: MCMPCFTTDHQMAR
chain 2: GKCYGPQCLCR
chain 3: KCDDCCGGK
modifications: not fully specified; modifications not checked

What was measured:
[1] = molecular target: T1, Recombinant human NRP1 with His Tag (Sino Biological Inc.; Cat #1001-H08H) (human), O14786
[2] = molecular target: T1, Recombinant human NRP1 with His Tag …; test: BLI (Octet Red96), biotinylated peptide on streptavidin sensor, NRP1 in solution
[3] = molecular target: T1, Recombinant human NRP1 with His Tag …; remark: listed apart in the source
[4] = molecular target: T1, Recombinant human NRP1 with His Tag …; remark: listed apart in the source

T1 sequence (O14786 other isoform, or with tags, fused parts or gaps H08H H08H limits assumed): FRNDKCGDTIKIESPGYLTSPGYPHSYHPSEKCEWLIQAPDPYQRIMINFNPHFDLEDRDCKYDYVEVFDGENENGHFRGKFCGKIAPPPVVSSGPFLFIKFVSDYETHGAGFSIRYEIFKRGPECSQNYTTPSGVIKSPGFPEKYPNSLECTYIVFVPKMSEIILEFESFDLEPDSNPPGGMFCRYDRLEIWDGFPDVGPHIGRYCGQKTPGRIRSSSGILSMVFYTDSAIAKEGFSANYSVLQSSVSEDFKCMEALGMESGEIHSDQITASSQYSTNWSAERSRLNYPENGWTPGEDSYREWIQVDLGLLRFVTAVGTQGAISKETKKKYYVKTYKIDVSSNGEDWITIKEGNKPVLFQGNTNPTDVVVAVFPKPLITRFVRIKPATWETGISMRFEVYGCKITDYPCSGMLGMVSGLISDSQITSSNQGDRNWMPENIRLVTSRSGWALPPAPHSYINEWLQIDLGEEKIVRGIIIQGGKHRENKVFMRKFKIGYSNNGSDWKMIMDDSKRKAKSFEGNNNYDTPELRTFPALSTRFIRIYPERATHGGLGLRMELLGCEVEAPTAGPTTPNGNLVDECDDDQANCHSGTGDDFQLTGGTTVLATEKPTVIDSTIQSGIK

Row | Binder | Kd [1] | Kd [3] | other results
1 | Biotin-CYGPQCLC(Capped)R-OH (disulfide 1-6; reading uncertain) [NH2(Biotin)-C-Y-G-P-Q-C-L-C(Capped)-R-COOH with S-S between the first two C] | 0.41 µM |  | 
2 | Biotin-C(Capped)LC(Capped)R-OH (reading uncertain; also: printed as NH2(Biotin)-C(Capped)-L-C(Capped)-R-COOH) [NH2(Biotin)-C(Capped)-L-C(Capped)-R-COOH] |  |  | Kd [2]: 0.335 µM
3 | B1 | 0.3 µM and 0.294 µM |  | 
4 | B2 |  | 0.173 µM and 0.07 µM | 
5 | B3 |  |  | Kd [4]: 0.153 µM and 0.335 µM
6 | B4 |  | 0.112 µM and 0.187 µM | 
